Laboratory results from paper PMC7271519, “The DISC1 R264Q variant increases affinity for the dopamine D2 receptor and increases GSK3 activity” (Molecular Brain, 2020).
Numbering of substitutions follows the chain as printed. Names may count otherwise.

B1: GST-DISC1NT (human, wild type) (domain or fragment)
chain: MPGGGPQGAPAAAGGGGVSHRAGSRDCLPPAACFRRRRLARRPGYMRSSTGPGIGFLSPAVGTLFRFPGGVSGEESHHSESRARQCGLDSRGLLVRSPVSKSAAAPTVTSVRGTSAHFGIQLRGGTRLPDRLSWPCGPGSAGWQQEFAAMDSSETLDASWEAACSDGARRVRAAGSLPSAELSSNSCSPGCGPEVPPTPPGSHSAFTSSFSFIRLSLGSAGERGEAEGCPPSREAESHCQSPQEMGAKAASLDGPHEDPRCLSRPFSLLATRVSADLAQAARNSSRPERDMH
modifications: GST carrier omitted; limits not given, N-terminal head region taken from the UniProt feature 1-292
B2: GST-DISC1-NT R264Q (human) (domain or fragment)
chain: B1 chain with R264Q
modifications: GST carrier omitted; limits not given, N-terminal head region taken from the UniProt feature 1-292
B3: GST-DISC1NT (mouse, wild type) (domain or fragment)
chain: MQGGGPRGAPIHSPSHGADSGHGLPPAVAPQRRRLTRRPGYMRSTAGSGIGFLSPAVGMPHPSSAGLTGQQSQHSQSKAGQCGLDPGSHCQASLVGKPFLKSSLVPAVASEGHLHPAQRSMRKRPVHFAVHSKNDSRQSERLTGSFKPGDSGFWQELLSSDSFKSLAPSLDAPWNKGSRGLKTVKPLASPALNGPADIASLPGFQDTFTSSFSFIQLSLGAAGERGEAEGCLPSREAEPLHQRPQEMAAEASSSDRPHGDPRHLWTFSLHAAPGLADLAQVTRSSSRQSECGTV
modifications: GST carrier omitted; limits not given, N-terminal head region taken from the UniProt feature 1-294
B4: GST-Disc1-L100PNT (mouse) (domain or fragment)
chain: B3 chain with L100P
modifications: GST carrier omitted; limits not given, N-terminal head region taken from the UniProt feature 1-294

Key:
[1] = biological target: T1, TAT-D2pep[K211-T225] peptide (UniProt P14416 211-225); test: SPR; TAT-D2pep amine-coupled to carboxymethylated dextran chip (600 RU); human GST-DISC1NT or R264Q flowed at 0-4.0 uM; 25 °C; TBS-T (150 mM NaCl, 1 mM CaCl2, 1 mM MgCl2, 10 mM Tris pH 7.4, 0.005% P-20); 50 ul/min; equilibrium analysis; conditions: both partners purified
T1 construct: dopamine D2 receptor, residues K211-T225; also called D2 [K211-T225]

[2] = biological target: T1, TAT-D2pep[K211-T225] peptide; test: SPR; TAT-D2pep amine-coupled to carboxymethylated dextran chip; mouse GST-Disc1-L100PNT at 25-400 nM, GST-DISC1NT at 100 nM-1.6 uM; 25 °C; TBS-T pH 7.4; 50 ul/min; association 180 s, dissociation 300 s; KD from association and dissociation rates; conditions: both partners purified

| Binder | Kd [1] | Kd [2] |
| --- | --- | --- |
| B1 | 653 ± 6 nM |  |
| B2 | 243 ± 3 nM |  |
| B3 |  | 760 ± 20 nM |
| B4 |  | 100 ± 2 nM |
